For assay [1], the target named is T1, Matrix metalloproteinase-1 (MMP-1) enzyme (Homo sapiens, UniProt P03956).
T1 construct: purchased Enzo
T1 sequence (P03956 100-269 limits assumed): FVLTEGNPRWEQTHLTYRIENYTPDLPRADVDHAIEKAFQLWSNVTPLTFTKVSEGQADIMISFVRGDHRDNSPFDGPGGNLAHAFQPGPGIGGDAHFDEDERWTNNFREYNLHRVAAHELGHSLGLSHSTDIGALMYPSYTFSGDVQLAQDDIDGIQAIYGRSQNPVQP
The experiment in a line: MMP-1 enzyme activity inhibition in vitro (MMP-1 Fluorometric Drug Discovery Kit). Type of assay: biochemical. The settings on record: for inhibition of MMP-1 enzyme activity compared to the group treated with the only MMP-1 enzyme: 10 μM; for significant effect of inhibiting MMP-1 activity: FIG. 5A. The procedure:
MMP-1 Fluorometric Drug Discovery Kit manufactured by Enzo company was used to evaluate an ability to inhibit Matrix metalloproteinase-1 (MMP-1) enzyme activity in the peptide synthesized in Example 3. N-Isobutyl-N-(4-methoxyphenylsulfonyl) glycyl hydroxamic acid (NNGH) which is known to inhibit MMP-1 activity was used as a positive control group, and NNGH was treated at a concentration of 0.65 μM. […] The substrate was added to the reaction mixture, fluorescence thereof was measured at Ex/Em=540/590 nm, and the ability to inhibit MMP-1 activity was evaluated according to the following Equation 2. The results of the ability of inhibiting MMP-1 activity are illustrated in FIG. 5A. Ability to inhibit MMP-1activity(%)=Fluorescence intensity of sample-added group/Fluorescence intensity of non-treated group×100 [Equation 2]

The test system of another assay is MMP-1 expression. The experiment in a line: Inhibition of UVB-induced MMP-1 expression in human dermal fibroblasts (Western blot). Format: cell-based. The settings on record: 10 μM, 20 mJ/cm^2 UVB. The procedure:
Then, ultraviolet ray B was irradiated with 20 mJ/cm^2 using Vilber Lourmat (BioLink Crosslinker, France), cultured for 24 hours, and then cell proteins were recovered. At this time, the medium was removed before ultraviolet irradiation, and then washed with phosphate buffered saline (PBS) solution to remove serum components in the medium and then irradiated with ultraviolet ray B. The cells were washed twice with PBS solution to recover the proteins, and then the cells adhered to the bottom were recovered using a lysis buffer and centrifuged at 14,000 rpm for 10 minutes. After each supernatant was recovered, the protein concentration of each cell supernatant was quantified according to the method of use with a protein assay kit (Bio-Rad, USA) using bovine serum albumin (BSA) as the reference material. About […] protein from each of the protein extracts was denatured and separated by 8% gel sodium dodecyl sulphate-polyacrylamide gel electrophoresis (SDS-PAGE) and transferred to a polyvinylidene fluoride (PVDF) membrane at 120 mA for 2 hours. […]

As for GLSGL [KP7-1], in assay [1], the “inhibition of MMP-1 enzyme activity compared to the group treated with the only MMP-1 enzyme” value was “inhibited the activity of MMP-1 enzyme” and the “significant effect of inhibiting MMP-1 activity” value was “significant effect of inhibiting MMP-1 activity”.

FPQN [2n7-5]: the “inhibition of MMP-1 enzyme activity compared to the group treated with the only MMP-1 enzyme” value in assay [1] is “inhibited the activity of MMP-1 enzyme”.

Turning to GLGSR [2-2], in assay [1], the “inhibition of MMP-1 enzyme activity compared to the group treated with the only MMP-1 enzyme” value is on record as “inhibited the activity of MMP-1 enzyme” and the “significant effect of inhibiting MMP-1 activity” value is on record as “significant effect of inhibiting MMP-1 activity”. In addition, the “inhibition of MMP-1 expression compared to the group treated with the only UVB” value in the assay on MMP-1 expression is listed as about 35%.

Consider IQPSPV [KP7-2], for which, in assay [1], the “inhibition of MMP-1 enzyme activity compared to the group treated with the only MMP-1 enzyme” value is “inhibited the activity of MMP-1 enzyme” and the “significant effect of inhibiting MMP-1 activity” value is reported as “significant effect of inhibiting MMP-1 activity”.

Take PISS [2n7-2]: the “inhibition of MMP-1 enzyme activity compared to the group treated with the only MMP-1 enzyme” value in assay [1] is on record as “inhibited the activity of MMP-1 enzyme”.

As for GFGGF [2n7-4], in assay [1], the “inhibition of MMP-1 enzyme activity compared to the group treated with the only MMP-1 enzyme” value is given as “inhibited the activity of MMP-1 enzyme” and the “significant effect of inhibiting MMP-1 activity” value is recorded as “significant effect of inhibiting MMP-1 activity”.

GPTPL [2-1]: in assay [1], the “inhibition of MMP-1 enzyme activity compared to the group treated with the only MMP-1 enzyme” value was “inhibited the activity of MMP-1 enzyme” and the “significant effect of inhibiting MMP-1 activity” value is “significant effect of inhibiting MMP-1 activity”. For the same substance, the “inhibition of MMP-1 expression compared to the group treated with the only UVB” value in the assay with MMP-1 expression was “about 24%”.
